One molecule from patent US8309523 (VIB VZW, dated 2012) can be followed below.

Common to all, as to test: bio-IP from HEK293T cells, anti-TRAF6 immunoblot
The target of assay [1] is T1, p76 fragment of MALT1 (Avi-tagged expression construct) (human, UniProt Q9UDY8 150-824, Avi-tag biotinylated in vivo by co-expressed BirA).
T1 construct: domain: p76 cleavage fragment; Lacks the N-terminal death domain; also called MALT1 p76; 76 kDa C-terminal fragment
T1 sequence (looked up): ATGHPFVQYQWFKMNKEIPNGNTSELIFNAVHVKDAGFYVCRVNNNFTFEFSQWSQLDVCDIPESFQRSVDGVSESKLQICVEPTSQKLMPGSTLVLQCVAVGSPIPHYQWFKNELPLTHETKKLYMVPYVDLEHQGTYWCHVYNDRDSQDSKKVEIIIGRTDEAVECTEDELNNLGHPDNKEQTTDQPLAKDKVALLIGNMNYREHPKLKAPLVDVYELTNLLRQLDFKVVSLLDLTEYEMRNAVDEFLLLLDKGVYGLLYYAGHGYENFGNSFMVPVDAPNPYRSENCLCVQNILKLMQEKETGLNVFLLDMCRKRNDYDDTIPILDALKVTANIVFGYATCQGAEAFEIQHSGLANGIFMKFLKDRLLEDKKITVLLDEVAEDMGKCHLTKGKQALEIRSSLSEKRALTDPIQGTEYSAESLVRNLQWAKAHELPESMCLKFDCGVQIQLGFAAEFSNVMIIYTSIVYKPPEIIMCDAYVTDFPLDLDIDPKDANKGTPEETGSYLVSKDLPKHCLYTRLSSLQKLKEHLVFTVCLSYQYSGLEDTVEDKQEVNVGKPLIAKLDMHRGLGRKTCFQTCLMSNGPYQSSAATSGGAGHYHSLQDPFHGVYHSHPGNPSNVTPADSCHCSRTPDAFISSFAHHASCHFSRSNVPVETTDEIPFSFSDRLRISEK
An excerpt:
(§1) FIG. 5: p76 activates NFκB via TRAF6. […] Panel B) TRAF6 mediates NFκB signaling by p76. Top: NFκB-reporter assays of HEK293T cells transiently expressing MALT1, p76 and mutants or MALT1-C. Bottom: MALT1, p76 or MALT1-C, transiently expressed in HEK293T cells, were purified via bio-IPs and immunoblotted with anti-MALT1 (to show equal expression), anti-TRAF6 and anti-BCL10. Panel C) p76 induces polyubiquitination of IKKγ. Immunoblot analysis of bio-IP and IKKγ-IP of 293T cells transfected with pcD-F-IKKγ and pcd-HA-Ub in combination with indicated Avi-tagged MALT1 constructs. Panel D) BCL10 is not involved in NFκB signaling by p76. NFκB reporter assays of HEK-293T cells transfected with siRNA duplexes against MALT1, BCL10 or GFP (as control) followed by transient transfection with p76. The expression levels were determined by immunoblot with anti-MALT1 and anti-BCL10. NFκB-dependent luciferase activity […] is shown as fold induction of vector-transfected cells and represents the mean+/−S.D. of three independent experiments.
(§2) NFκB activation by MALT1 requires TRAF6 binding via two distinct sites (19), which are both present in the p76 cleavage fragment. Mutation of one TRAF6 binding site, either E313A/E316A (T6Ig-m) or E806A (T6C-m), abolished the potential of p76 to activate NFκB signaling in 293T cells (FIG. 5, Panel B). […] Furthermore, NFκB activation by p76 in 293T cells was associated with increased polyubiquitination of IKKγ (FIG. 5, Panel C).

In a further assay the target is T2, p76 T6Ig-m (E313A/E316A) (human, UniProt Q9UDY8 150-824, Avi-tag biotinylated in vivo by co-expressed BirA).
T2 construct: domain: p76 cleavage fragment
T2 sequence (looked up): T1 sequence (looked up) with E164A, E167A
From the text: as §1, §2

For assay [2], the target named is T3, p76 T6Ig/C-m (E313A/E316A and E806A) (human, UniProt Q9UDY8 150-824, Avi-tag biotinylated in vivo by co-expressed BirA).
T3 construct: domain: p76 cleavage fragment
T3 sequence (looked up): T1 sequence (looked up) with E164A, E167A, E657A
From the text: as §1, §2

Residue numbers refer to the chain shown, from its start.

B1: TRAF6 (other, UniProt Q9Y4K3 1-522, looked up)
chain: MSLLNCENSCGSSQSESDCCVAMASSCSAVTKDDSVGGTASTGNLSSSFMEEIQGYDVEFDPPLESKYECPICLMALREAVQTPCGHRFCKACIIKSIRDAGHKCPVDNEILLENQLFPDNFAKREILSLMVKCPNEGCLHKMELRHLEDHQAHCEFALMDCPQCQRPFQKFHINIHILKDCPRRQVSCDNCAASMAFEDKEIHDQNCPLANVICEYCNTILIREQMPNHYDLDCPTAPIPCTFSTFGCHEKMQRNHLARHLQENTQSHMRMLAQAVHSLSVIPDSGYISEVRNFQETIHQLEGRLVRQDHQIRELTAKMETQSMYVSELKRTIRTLEDKVAEIEAQQCNGIYIWKIGNFGMHLKCQEEEKPVVIHSPGFYTGKPGYKLCMRLHLQLPTAQRCANYISLFVHTMQGEYDSHLPWPFQGTIRLTILDQSEAPVRQNHEEIMDAKPELLAFQRPTIPRNPKGFGYVTFMHLEALRQRTFIKDDTLLVRCEVSTRFDMGSLRREGFQPRSTDAGV
notes: Co-precipitated from lysates of human cell lines
As to B1, the binding result in assay [1] is given as “binds”; in the assay with p76 T6Ig-m (E313A/E316A) it was “binds”; in assay [2] it was “no binding”.
